Test results published in patent US20110052525A1, “Breaking Immunological Tolerance with a Genetically Encoded Unnatural Amino Acid” (THE SCRIPPS RESEARCH INSTITUTE, priority 2008, published 2011).

Tests used:
[1] = TR-FRET retinol binding assay of mRBP4 proteins; conditions: retinol binding affinity, Cy5-labeled retinol
Protocol: The binding affinities of mRBP4 proteins were determined by a TR-FRET retinol binding assay.
WT and pNO2Phe mRBP4 mutant proteins were labeled with biotin using the Sulfo-NHS-Biotin kit (Pierce, Rockford, Ill.) according to manufacturer instructions. For determination of retinol binding activity, 10 nM biotin-labeled RBP4 was mixed with 1 nM Streptavidin-Europium chelate (LANCE® Eu-W8044 Streptavidin, Perkin Elmer, Foster City, Calif.). Increasing concentrations of Cy5-labeled retinol were added to the reaction and retinol binding was assessed by homogeneous time-resolved fluorescence resonance energy transfer (TR-FRET).

mRBP4 = target: T1, mRBP4 (Mus musculus, UniProt Q00724); assay: Serum IgG titers by ELISA after RIMMS immunization of mice with mRBP4 variants; format: in vivo
T1 construct: The cDNA encoding murine RBP4 (aa 19-201); made in house; host or cells: E. coli BL21(DE3)
Protocol: 30 μl of 0.5 μg/ml protein was used to coat the wells of Maxisorp 384-well plates (Nunc, Rochester, N.Y.) overnight at 4° C. After washing with PBS+0.05% Tween 20 (PBST), the coated plates were blocked with 80 μl of 1% BSA in PBS, and washed again with PBST. The plates were sequentially incubated with 20 μl of primary antibody or serum diluted in 1% BSA in PBS, 20 μl of HRP-conjugated goat anti-mouse IgG or anti-mouse IgM (Jackson ImmunoResearch Laboratories, West Grove, Pa.), and 20 μl of TMB substrate (KPL, Gaithersburg, Md.), and read at an absorbance of 650 nm. Between incubations, the plates were washed at least six times with PBST.
Before measurement, serum samples were diluted 1:1,000 with 1% BSA in PBS buffer.

Kd [1]: 171 nM
serum IgG titers against WT mRBP4 (mRBP4; Bcl2 mice, RIMMS, ELISA (FIG. 19)): insignificant serum IgG titers
serum IgG titers against WT mRBP4 (mRBP4; C57BL/6 mice, ELISA (FIG. 26)): insignificant serum IgG titers
Substance: WT mRBP4: wild-type murine retinol binding protein 4
